The record followed here is paper PMC11764377.

Assay [1] has as its target Allochromatium tepidum LH1 α1β1 heterodimer subunit (of the Ca2+-bound LH1-α1β1 complex) (Allochromatium tepidum). Briefly: cryo-EM structure; LH1-only complex co-expressed in Rsp. rubrum H2 and purified in β-DDM, ~5 mg/mL; C14 symmetry applied; closed ring of 14 αβ-heterodimers.
Assay [2] addresses Allochromatium tepidum LH1 α2β1 heterodimer subunit (of the Ca2+-free LH1-α2β1 complex) (Allochromatium tepidum). The assay is described as above.

Usually stoichiometry N stands for a count of units in the complex or per binding partner. Substance “Allochromatium tepidum LH1 α1β1 heterodimer subunit (of the Ca2+-bound LH1-α1β1 complex)” yielded a stoichiometry N in assay [1] of 14.

On to “Allochromatium tepidum LH1 α2β1 heterodimer subunit (of the Ca2+-free LH1-α2β1 complex)”, for which the stoichiometry N in assay [2] was 14.
